Assay results reported in paper PMC10268231 (Nature, 2021).

Legend:
Test in all cases: cryo-EM structure
PRIM1 = target: T1, PRIM1 (human, UniProt P49642 2-420)
T1 sequence: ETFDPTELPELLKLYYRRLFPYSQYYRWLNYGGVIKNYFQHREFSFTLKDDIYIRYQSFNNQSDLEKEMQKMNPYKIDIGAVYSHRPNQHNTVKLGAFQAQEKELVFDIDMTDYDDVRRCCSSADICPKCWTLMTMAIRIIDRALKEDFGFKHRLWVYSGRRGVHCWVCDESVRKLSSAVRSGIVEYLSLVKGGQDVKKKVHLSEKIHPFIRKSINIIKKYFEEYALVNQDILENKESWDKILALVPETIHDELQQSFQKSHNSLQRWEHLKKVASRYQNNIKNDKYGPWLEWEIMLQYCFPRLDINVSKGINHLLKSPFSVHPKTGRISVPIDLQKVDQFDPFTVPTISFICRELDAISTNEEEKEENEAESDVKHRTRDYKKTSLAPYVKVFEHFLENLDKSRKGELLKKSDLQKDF

STN1 = target: T2, STN1 (human, UniProt Q9H668 2-368)
T2 sequence: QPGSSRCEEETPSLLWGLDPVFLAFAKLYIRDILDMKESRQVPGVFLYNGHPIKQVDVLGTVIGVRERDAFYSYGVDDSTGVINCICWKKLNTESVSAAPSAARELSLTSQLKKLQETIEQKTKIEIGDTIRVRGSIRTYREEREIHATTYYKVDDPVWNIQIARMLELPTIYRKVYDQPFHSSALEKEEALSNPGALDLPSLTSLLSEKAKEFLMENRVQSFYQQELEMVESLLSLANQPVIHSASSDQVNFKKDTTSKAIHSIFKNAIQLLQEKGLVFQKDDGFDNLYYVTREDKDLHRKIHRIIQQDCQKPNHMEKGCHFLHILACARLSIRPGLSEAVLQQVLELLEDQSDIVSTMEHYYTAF

PRIM2 = target: T3, PRIM2 (human, UniProt P49643-1 1-509)
T3 sequence (looked up): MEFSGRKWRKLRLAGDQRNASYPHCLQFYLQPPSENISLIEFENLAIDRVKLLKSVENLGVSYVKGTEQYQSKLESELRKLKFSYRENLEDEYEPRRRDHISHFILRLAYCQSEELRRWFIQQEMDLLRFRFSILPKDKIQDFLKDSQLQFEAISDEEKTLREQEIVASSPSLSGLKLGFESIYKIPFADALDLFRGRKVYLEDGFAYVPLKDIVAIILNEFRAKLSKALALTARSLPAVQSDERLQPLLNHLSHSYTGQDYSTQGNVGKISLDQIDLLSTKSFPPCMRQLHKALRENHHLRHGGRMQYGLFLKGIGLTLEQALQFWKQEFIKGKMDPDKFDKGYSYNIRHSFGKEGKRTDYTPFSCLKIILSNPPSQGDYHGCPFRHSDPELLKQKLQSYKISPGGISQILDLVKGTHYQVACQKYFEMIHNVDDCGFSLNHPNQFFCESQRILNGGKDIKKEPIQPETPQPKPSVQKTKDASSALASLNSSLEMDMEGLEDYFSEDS

POLA2 = target: T4, POLA2 (human, UniProt Q14181-1 1-598)
T4 sequence (looked up): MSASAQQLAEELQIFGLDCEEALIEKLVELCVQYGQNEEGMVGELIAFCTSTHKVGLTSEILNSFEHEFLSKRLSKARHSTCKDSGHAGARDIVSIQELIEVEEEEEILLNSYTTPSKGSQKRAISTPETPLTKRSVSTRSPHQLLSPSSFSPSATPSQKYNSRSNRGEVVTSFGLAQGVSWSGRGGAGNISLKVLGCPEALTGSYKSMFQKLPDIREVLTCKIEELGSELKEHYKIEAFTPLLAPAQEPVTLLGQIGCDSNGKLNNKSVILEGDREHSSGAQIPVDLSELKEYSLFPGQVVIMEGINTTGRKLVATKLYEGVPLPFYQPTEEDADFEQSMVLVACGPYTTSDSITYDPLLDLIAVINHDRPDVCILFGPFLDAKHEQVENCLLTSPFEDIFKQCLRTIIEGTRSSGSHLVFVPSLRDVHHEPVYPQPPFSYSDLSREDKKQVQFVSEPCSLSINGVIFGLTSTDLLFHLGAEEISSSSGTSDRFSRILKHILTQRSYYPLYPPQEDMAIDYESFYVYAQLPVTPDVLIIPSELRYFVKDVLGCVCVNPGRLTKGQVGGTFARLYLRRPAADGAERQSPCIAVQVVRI

binding result (PRIM1): binds
binding result (STN1): binds
binding result (PRIM2): binds
binding result (POLA2): binds
B1: TEN1 (natural protein, human)
chain: LPKPGTYYLPWEVSAGQVPDGSTLRTFGRLCLYDMIQSRVTLMAQHGSDQHQVLVCTKLVEPFHAQVGSLYIVLGELQHQQDRGSVVKARVLTCVEGMNLPLLEQAIREQRLYKQERGGSQ
